# Test results published in the DeepSol protein solubility set.
# Assay: soluble on expression in E. coli; label from the status in PepcDB or PDB records
row,Sequence,soluble on expression in E. coli
1,MKRCDLHIHTVPSVSDREFTYDKEILSDYVAKTKLDVIAITNHNLFDYAQFQEIKDILPQIVVLPGIEVDLEDGHILVIANNDDRTLFDFNSKCEEIKNLIKSEADNITYDRFVGIFGDLSKYLLIPHYEKEPKLRKDILEKLGRNIIAGEVSSVKKFIYMEKERAGLTPVYFSDFRIEKGITPDKYPVSHTFFDVDEVNIKTLKLCLMDKTKVSLTSEEGIKLFPIFPNGQKLSTGLNIMYGKRSTGKTFTLDAIASRFNGKAKYIKQFELLNTNRNDSEQFESDMKVRQEESAENYLREFSDVVTDMLKTCSSDEDDIKLQKYLDAVKSSAQQSNVNDVFSKSKLFNESDFKERSCDEIKELINATQTLLESQLYKKIINKHLSEISLKALLKDLIELYLEGNAANQYVKEVNNMIKMVKESLQLKSAAPRIPDIDLYQYFINKKKREVFAQIAMSVKKSRTISTEKAGHFTVSVSARPFMNATDLKTVRLTQVSLTNAFKKYENPVQYLNELKAAGVEINRIYKLFAAIDYKILNSSGLPVSGGERSEFNFLQKIKDAILCDILIIDEPESSFDNIFLKNEVNKFIKEMAENMPVIISTHNNTIGSSIKPDYILYTEKKMEADGAHFKIYSGYPTAKELRDVDGNTIENYEITLNSLEAGEQAYSERKDIYETLKN,not soluble
2,MGSDKIHHHHHHMVMMSKQLTAQAPVDPIVLGKMGSSYGIRGWLRVFSSTEDAESIFDYQPWFIQKAGQWQQVQLESWKHHNQDMIIKLKGVDDRDAANLLTNCEIVVDSSQLPQLEEGDYYWKDLMGCQVVTTEGYDLGKVVDMMETGSNDVLVIKANLKDAFGIKERLVPFLDGQVIKKVDLTTRSIEVDWDPGF,not soluble
3,MAHHHHHHMDQLVYYVMVQHNSIQPIIVRQPPTVVIHTQPNPPITLDLPPQNIILKNDEPQPIIVRQQNPNIIVQKSGNEFSENPNYALSLNQQMKEITSMTSPSAAIPHGGIAQVGIPHVTNEPLLGVTTPEMNELTDPAYIYSNQYITTQNKSQPMNNMYFTSVPLNNDGSYSPYNMTLYANKREDYTKSTPSKY,not soluble
4,MAPPTTIRTRDQALAPLATLDSQTNCRLKELVQWECQFKGAEYVCSPFKRLFEHCIAPDKSATNYEVTDTYTNS,not soluble
5,MAEVLKKVDVVTVGAGWTGGIVAAELTKAGLNVLSLERGHMQSTENFNYIHDEWRYGINYGLMQDCSKDTVTFRHDPSGLALPYRKMGSFLLGNNVGGAGVHWNGWTFRFMPYDFEIQTLSKQRYGNKLGNDYTLQDWGVTYKDMEPYYDRFEKTCGVSGEPNPLAEKMGAFRSSPYPQEPLENTKMLKRFESAAKSSNLHTYRLPASNSKGGYTNPDGQDLAPCQYCAYCERFGCEYGAKASPLNTVIPKAMSTGKYTIRTYSNVTQILKKDGKVTGVKFVDTRTMKEYIQPADIVVLTSYMFNNAKLLMVSNIGEQYDPKTGKGTLGRNYCYQMNMGTTAFFDEQFNTFMGSGALGTTSDDFNGDNFDHSKEKFLHGAMIYSVQLGTRPIQSAPLPAGAPTWGAEFKKALNYNFTRAITVGGQGASLPHKNNYLSLDPTYKDAFGMPLLRLTYNFTDQDRALHKFITDKTAEVAKRMQGVKSIKKGAYLKDYSVVPYQSTHNTGGTTMGADRETSVVNTYLQHWDADNLFVVGAGNFQHNSGYNPTDTVGALAYRCAEGILKYHKSGKSLALEHHHHHH,not soluble
6,MCMGIFNRISNMIKAKTNSALDEMENPVELLDQKIRDMEKSFNEGKRSSAQIFGNLKDTEKKMNEAKEESAQYDEKVRLAMSKGNEELAKKALKLKLDSDKKFESLKASYEGQRAKADVLKGKLVELEKELDKTRSYRDEAVARLNNAEASKQINEVIANVQSKSNSINIDDIERSISRKESYAAGLEELKGESLDDEFAKLEELSLDDELNKYRTQNTQEDKTSDSEVDLELEKYKNKLEHHHHHH,not soluble
7,MANVESLYKELTAEWSKRPPNTVKCGQLLDQLKVALVKMAFLPTDGNDAQSSKKQLILARSVLEVAVEHSVLSKDLLAFERYMAQLKCYYYDYAKIIGESESKYKLLGLNLLYLLSGNRVSDFHTELELLSVDVIQHNQFIRPILALEQYIMEGRYNKIFQAKSTVPVEVYSYFMDLLLETVRDEIGACIEKSYDKISAKDAAKRLNLRVPDEIKAFGAKRQWKLEASGDYSFTDRSVKPKELLPSEELAEQVLSYARDLEMIV,not soluble
8,MPEIIGKLLKSDGKVVSEIEKQVSQALIDLETNDDVQSQLKELYIVGVKEVELGNKSAIIIYVPVPQLKAFHKIHPALVRELEKKFGGRDILILAKRRILPKPQRGSKARPQKQKRPRSRTLTAVHDAWLDELVYPAEVVGRRIRVKLDGKKVYKVHLDKSHQTNVGHKIGVFASVYRKLTGKDVTFEFPDPIF,not soluble
9,MRTMVFPGSAPAYPIRYPSTMQETDSGAGPRTLRRGLMVLAALRDQGPRGLSVTDIARQTGIQRPTIYRLLAALLDAGLVVPLQGTKKYRTQLAADADLAAPDPRVRQMLPVLRRLADRTGDAVFLVVRDGDDSVSLHREIGSYPVQILATYAGKRQPLGVGSGGMALLAALPDEIAHAIVQRNSGRLDEYGGMTPQEMHRLIENTRARGYSVVGNHAVRGALGVGCALLDAQGAPVLAVSVTAIIDRMPAQRQREIAGWIGAELARLAPKA,not soluble
10,NVKQQFFPPSNTPMFYVDMWMPEGTDIRQTIKQAEKVESYIRQQDDIDFVSVSIGQGLQRFALTYQPEKSYEAYAQFQVRTTDRDNMFKLLHKLDDNLAKTFDEPTFQFKLMEFGPSPASKIEARITGPDPKVLRELAVQVEDILHTDPGARNIRHDWRERTKELVPVFNESKARRLGISKEDLSSTLQMAFGGSTFGVLRDGTHTLPIMMRLPEAERVDFESLQNVKIWSPSLQTYIPVDQIIDGVELDWSEPLIQRRDRKRTLTVLADHDVLSDDTAASLFARVQPKVMALHIPEGYEITWGGEYESSKDAQE,not soluble
11,SNANEAQQYYLDADEAEAWIGEQELYVISDEIPKDEEGAIVMLKRHLRQQRAVEDYGRNIKQLASRAQGLLSAGHPEGEQIIRLQGQVDKHYAGLKDVACERKRKLENMYHLFQLKRETDDLEQWISEKELVASSPEMGQDFDHVTLLRDKFRDFARETGAIGQERVDNVNAFIERLIDAGHSEAATIAEWKDGLNEMWADLLELIDTRMQLLAASYDLHRYFYTGAEILGLIDEKHRELPEDVGLDASTAESFHRVHTAFERDVHLLGVQVQQFQDVATRLQTAYAGEKAEAIQNKEQEVSAAWQALLDACAGRRTQLVDTADKF,soluble
12,ADETLAEFHVEMGGCENCHADGEPSKDGAYEFEQCQSCHGSLAEMDDNHKPHDGLLMCADCHAPHEAKVGEKPTCDTCHDDGRTAK,soluble
13,SLENENQLTHQFPTLSRWNPMFISDVHKISFHPHLQRYIGFWMGFPIRWIQIVGYIAAIDIYEGKHVLTVDDCSGMVLRVVFIIQDDFSMSKRAISMSPGNVVCVFGKINSFRSEVELIAQSFEELRDPNDEWKAWQKRMRYKKNLTKISKNHHSIIRT,soluble
14,MGSDKIHHHHHHMKIVFMGTPEFAAAHLKEIVESGNKVAGVFSQPDRPKGRGQKVEPTPVKTVATNYGIPVFQPEKINSDEGFEKLSELSPDIIVVVAFGKLLKSGVINLPTIGCFNVHASLLPKYRGAAPIQRAIENGETKTGITIFKIDEGMDTGAIALKRELEIHPSDSFGSLYLKLAELGKKTLVHFLERVKEGRLELAPQDGIPSFAPKIQPEDLVISDLSDAAKVVNKIRAYDPQPGARVSVEGRISKVFGASLKCRNEGKGIVGEIVKIDDRGMIVSCGAENVIISLVQFPGKKPMRPKDALSGRLISEGIILGG,not soluble
15,MNYNSKMEPLAIPEYGRNIQNMVNYCMTIGDRDERNRCAQTIITIMGNMFPERRENSETKHILWDHLAIMSGFKLDIDYPMEIISPELLERKPKAVSYSANDIVYRHYGHLIQEMILKACAMEQGEERYALELLIANQMKRSYLTWNKDTVDDYKIFKDLYELSEGRIELTEESCHLTIPNASDRKDNNNTKRNKVFRRK,not soluble
16,MINDDILAHARQCAPAESCGYVVRTAQGERYFPCENLSAEPTMYFRISPEDYLNARNRGDIVALVHSHPDGKPCLSSADRTLQIQSGLDWWLVCDNRIHKFRCVPHLTGRQFEHGVTDCYTLFRDAYHLAGIDMPDFDREDDWWSQGKSLYLDHLEAAGFYRVNPEDAQPGDVLICCFGSPTPNHAAIYCGNGELLHHIPEQLSKREGYNDKWQRRTHSIWRHRQWCESAFTGIYNDLESASASA,not soluble
17,MKHIHIIGIGGTFMGGLAAIAKEAGFEVSGCDAKMYPPMSTQLEALGIDVYEGFDAAQLDEFKADVYVIGNVAKRGMDVVEAILNLGLPYISGPQWLSENVLHHHWVLGVAGTHGKTTTASMLAWVLEYAGLAPGFLIGGVPENFGVSARLPQTPRQDPNSQSPFFVIEADEYDTAFFDKRSKFVHYRPRTAVLNNLEFDHADIFADLGAIQTQFHYLVRTVPSEGLIVCNGRQQSLQDTLDKGCWTPVEKFGTEHGWQAGEANADGSFDVLLDGKTAGRVKWDLMGRHNRMNALAVIAAARHVGVDIQTACEALGAFKNVKRRMEIKGTANGITVYDDFAHHPTAIETTIQGLRQRVGGARILAVLEPRSNTMKLGTMKSALPVSLKEADQVFCYAGGVDWDVAEALAPLGGRLNVGKDFDAFVAEIVKNAEVGDHILVMSNGGFGGIHGKLLEALR,soluble
18,GMLKILATQFNGKLQTLTKQEDELFDVVRLLAQALVGQGKVYLDAYGEFEGLYPMLSDGPDQMKRVTKIKDHKTLHAVDRVLIFTPDTERSDLLASLARYDAWHTPYSIITLGDVTETLERSIAPLALKFDKGLLPAEDGSRHGLPSLALGAFLLTHILTQLQEMTEEWE,soluble
19,LIGYVRVSTNDQNTDLQRNALNCAGCELIFEDKISGTKSERPGLKKLLRTLSAGDTLVVWKLDRLGRSMRHLVVLVEELRERGINFRSLTDSIDTSTPMGRFFFHVMGALAEMERELIVERTKAGLETARAQGRIGGRRPKLTPEQWAQAGRLIAAGTPRQKVAIIYDVGVSTLYKRFPAGDK,soluble
20,MRARGRLLPRLLRTNIQSSRFLVSLGHTNDVMSSHLCSLCHLDHHPHPTPPSSSSSSSSLSLCAWLSCVCVCVCVYMHTTYHTGLSTYQCSILQPPPSPSLSTHTFLCVYCVLAPSSPPCIMVDTSSSAPASASPAITTSAAATTPVVILVVGMAGTGKTTLVHRMQHYAHTNGIRSYFINLDPAVTHTPYNVNIDIRDSVRYGEVMKNYRLGPNGAIMTSLNLFATKIHQVVSLLEKKEEMLDWIIVDTPGQIEVFTWSASGQLMADSFGAVFPTVLLFVADTVRCVSSPQTFVSTMLYSSGIMLKQQVPLVVVFNKTDVVSADSVIAWMRDNDALDEAVTNPHRSNRSRRAVSGEPGDGEDADWRGEGTRIGAAALGSQDALLANQGSGYAGTLAQSMSLFLHEFYEDLPYAAVSAASGAGMSELAASIERGKQQALEAKAERSAH,not soluble
21,MNGAELIIQEINKEAERKIEYILNEARQQAEKIKEEARRNAEAKAEWIIRRAKTQAELEKQRIIANARLEVRRKRLAIQEEIISSVLEEVKRRLETMSEDEYFESVKALLKEAIKELNEKKVRVMSNEKTLGLIASRIEEIKSELGDVSIELGETVDTMGGVIVETEDGRIRIDNTFEARMERFEGEIRSTIAKVLFG,soluble
